{"source": "paper PMC7793522", "target": "synthetic peptide on H-2Kb (mouse)", "test": "data from [108]; method not given; soluble, other"}
{"substance": "YAe62", "values": [{"measurement": "Kd", "result": 15, "unit": "µM"}]}
